In patent US20060200330A1, “Methods and systems for modeling and simulating biochemical pathways” (KOREA INSTITUTE OF SCIENCE AND TECHNOLOGY, priority 2005, published 2006):
Read-outs that look alike come from different tables or passages of the source.

Assays:
EGFR = conditions: cited from earlier work
MEK = test: Western blot of MEK activation (anti-phosphorylated MEK) in PC12 cells; assay type: cell-based
Method: (§1) In order to confirm the simulation, PC12 cells treated with EGF (100 ng/ml) were used to measure the time data tracking the activation levels of MEK and ERK, respectively. […] Western blot analysis was performed as follows. PC12 cells were treated with 100 ng/ml EGF for 0 to 120 min. Dissolved protein samples were reacted by using anti-phosphorylated MEK antibodies and anti-diphosphorylated ERK antibodies. Then, the resultant was reacted with anti-HRP (horse radish peroxidase)-conjugated secondary antibodies and confirmed the presence of a band via ECL chemoluminscence.
(§2) PC12 cells treated with EGF or nerve growth factor (NGF) were examined to evaluate the efficacies of PD09859 (10 μM) and U0126 (0.01-10 μM) in respect of MEK and ERK activation. Western blot analysis was performed as follows. PC12 cells treated with PD09859 and U0126 were treated with 100 ng/ml of EGF or NGF for 5 min. Then, the resulting protein sample was separated by performing SDS/PAGE, and then blotted by using anti-phosphorylated MEK and anti-diphosphoryated ERK antibodies. Again, the resultant was blotted by using anti-HRP (horseradish peroxidase) conjugated secondary antibodies and identified in bands by ECL chemo-luminescence.

ERK = test: Western blot of ERK activation (anti-diphosphorylated ERK) in PC12 cells; assay type: cell-based; conditions: PC12 cells treated with 100 ng/ml EGF for 0 to 120 min
Method: as §1, §2

B1: EGF: peptide growth factor composed of 55 amino acids in a long chain (protein, UniProt P01133 23-1207, looked up)
Pro-epidermal growth factor: PQHWSCPEGTLAGNGNSTCVGPAPFLIFSHGNSIFRIDTEGTNYEQLVVDAGVSVIMDFHYNEKRIYWVDLERQLLQRVFLNGSRQERVCNIEKNVSGMAINWINEEVIWSNQQEGIITVTDMKGNNSHILLSALKYPANVAVDPVERFIFWSSEVAGSLYRADLDGVGVKALLETSEKITAVSLDVLDKRLFWIQYNREGSNSLICSCDYDGGSVHISKHPTQHNLFAMSLFGDRIFYSTWKMKTIWIANKHTGKDMVRINLHSSFVPLGELKVVHPLAQPKAEDDTWEPEQKLCKLRKGNCSSTVCGQDLQSHLCMCAEGYALSRDRKYCEDVNECAFWNHGCTLGCKNTPGSYYCTCPVGFVLLPDGKRCHQLVSCPRNVSECSHDCVLTSEGPLCFCPEGSVLERDGKTCSGCSSPDNGGCSQLCVPLSPVSWECDCFPGYDLQLDEKSCAASGPQPFLLFANSQDIRHMHFDGTDYGTLLSQQMGMVYALDHDPVENKIYFAHTALKWIERANMDGSQRERLIEEGVDVPEGLAVDWIGRRFYWTDRGKSLIGRSDLNGKRSKIITKENISQPRGIAVHPMAKRLFWTDTGINPRIESSSLQGLGRLVIASSDLIWPSGITIDFLTDKLYWCDAKQSVIEMANLDGSKRRRLTQNDVGHPFAVAVFEDYVWFSDWAMPSVMRVNKRTGKDRVRLQGSMLKPSSLVVVHPLAKPGADPCLYQNGGCEHICKKRLGTAWCSCREGFMKASDGKTCLALDGHQLLAGGEVDLKNQVTPLDILSKTRVSEDNITESQHMLVAEIMVSDQDDCAPVGCSMYARCISEGEDATCQCLKGFAGDGKLCSDIDECEMGVPVCPPASSKCINTEGGYVCRCSEGYQGDGIHCLDIDECQLGEHSCGENASCTNTEGGYTCMCAGRLSEPGLICPDSTPPPHLREDDHHYSVRNSDSECPLSHDGYCLHDGVCMYIEALDKYACNCVVGYIGERCQYRDLKWWELRHAGHGQQQKVIVVAVCVVVLVMLLLLSLWGAHYYRTQKLLSKNPKNPYEESSRDVRSRRPADTEDGMSSCPQPWFVVIKEHQDLKNGGQPVAGEDGQAADGSMQPTSWRQEPQLCGMGTEQGCWIPVSSDKGSCPQVMERSFHMPSYGTQTLEGGVEKPHSLLSANPLWQQRALDPPHQMELTQ
modifications: Pro-epidermal growth factor
notes: peptide growth factor composed of 55 amino acids in a long chain
In the case of B1, the Kd (EGFR; EGFR high affinity binding, read-out: dissociation constant (Kd), interaction with a high affinity) is listed as < 1 nM, the Kd (EGFR; EGFR low affinity binding, read-out: dissociation constant (Kd), interaction with a low affinity) is listed as 6 to 12 nM and the “MEK activation, time course” value (MEK; PC12 cells treated with 100 ng/ml EGF for 0 to 120 min) is listed as “temporary activation”. For the same molecule, the MEK activation (MEK; PC12 cells treated with EGF 100 ng/ml for 5 min) was “became still higher” and the “ERK activation, time course” value (ERK) was “temporary activation”.
